Here are results for 2 molecules from paper PMC8949286, “A New Strategy for As(V) Biosensing Based on the Inhibition of the Phosphatase Activity of the Arsenate Reductase from Thermus thermophilus” (International Journal of Molecular Sciences, 2022).

One data set addresses T1, TtArsC (Thermus thermophilus, UniProt Q72HI5).
T1 construct: gene TT_C1502; recombinant, pET30/TtarsC in E. coli BL21-CodonPlus(DE3)-RIL; thermo-precipitation, anion exchange (Resource Q), gel filtration (Superdex S75); no tag mentioned
T1 sequence (Q72HI5 1-150): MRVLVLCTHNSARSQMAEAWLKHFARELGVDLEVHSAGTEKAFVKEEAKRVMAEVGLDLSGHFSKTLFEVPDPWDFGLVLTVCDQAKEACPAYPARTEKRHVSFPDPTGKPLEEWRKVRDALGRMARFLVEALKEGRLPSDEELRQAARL
Nature of the data set: biochemical.

Substrate in the data set “purified protein”: O=[N+]([O-])c1ccc(OP(=O)(O)O)cc1
Put plainly: purified protein. The format is biochemical, Thermus thermophilus. The following applies: no inhibitor, 4 µM enzyme, 20 mM Tris-HCl pH 7, 60 °C.

Molecule `O=[As]O` [As(III)] displayed an inhibition constant (Ki) on TtArsC of 394 ± 40.3 µM.

B1: TtArsC (Thermus thermophilus HB27) (protein)
chain: T1 sequence (Q72HI5 1-150)
notes: recombinant, pET30/TtarsC in E. coli BL21-CodonPlus(DE3)-RIL; thermo-precipitation, anion exchange (Resource Q), gel filtration (Superdex S75); no tag mentioned
For the molecule B1, in the data set “purified protein”, the Km is given as 9.57 ± 1.95 mM, the Vmax came to 0.0193 µmol/min/mg and the kcat stood at 0.005 s⁻¹.
